This note sets out measurements from article PMC11355779.

Test [1] deals with ClC-3c, C-terminally GFP-tagged (mouse). Briefly: FRET or BRET; FLIM-FRET in co-transfected HEK293T cells 24 h after transfection; GFP donor (488 nm), mCherry acceptor; efficiency from the donor lifetime (phasor plot) against donor-only cells.
Test [2] shares this target.

ClC-3c, C-terminally GFP-tagged (mouse), sequence (P51791 whole entry): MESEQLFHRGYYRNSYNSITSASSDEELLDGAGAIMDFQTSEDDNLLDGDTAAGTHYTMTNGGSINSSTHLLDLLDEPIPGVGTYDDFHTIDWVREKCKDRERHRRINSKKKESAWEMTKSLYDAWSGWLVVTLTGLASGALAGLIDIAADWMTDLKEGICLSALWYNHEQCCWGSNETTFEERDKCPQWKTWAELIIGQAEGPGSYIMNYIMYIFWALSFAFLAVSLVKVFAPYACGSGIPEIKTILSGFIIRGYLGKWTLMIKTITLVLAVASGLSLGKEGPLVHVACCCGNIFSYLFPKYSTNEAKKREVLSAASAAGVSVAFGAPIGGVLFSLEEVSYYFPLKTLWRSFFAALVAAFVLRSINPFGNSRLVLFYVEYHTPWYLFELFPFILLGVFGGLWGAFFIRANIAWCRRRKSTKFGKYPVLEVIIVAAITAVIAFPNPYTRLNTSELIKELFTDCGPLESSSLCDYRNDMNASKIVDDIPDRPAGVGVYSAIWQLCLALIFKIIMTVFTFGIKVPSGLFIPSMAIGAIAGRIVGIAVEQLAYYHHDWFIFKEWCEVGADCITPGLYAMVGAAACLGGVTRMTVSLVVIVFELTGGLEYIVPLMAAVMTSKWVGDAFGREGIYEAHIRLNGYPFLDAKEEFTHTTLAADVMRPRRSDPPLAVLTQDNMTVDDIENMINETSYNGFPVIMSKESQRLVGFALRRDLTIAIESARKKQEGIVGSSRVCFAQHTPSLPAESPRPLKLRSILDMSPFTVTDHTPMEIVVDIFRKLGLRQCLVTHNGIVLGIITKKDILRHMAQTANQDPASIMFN

In the case of “TMEM9 Domain Family Member B (TMEM9B), C-terminally mCherry-tagged (from UniProt Q9JJR8 35-199) (natural protein)”, the FRET efficiency in test [1] was 0.17. In test [2], this substance came in with a fast time constant of ClC-3 current activation in HEK cells co-transfected with TMEM9B (double exponential fit, 500 ms pulses) of 21 ms; a reduction of ClC-3 activity (whole-cell currents) in HEK cells by co-expression of TMEM9B of 70%; a slow time constant of ClC-3 current activation in HEK cells co-transfected with TMEM9B (double exponential fit, 500 ms pulses) of 120 ms.
